These results are taken from publication PMC2141740 (The Journal of Cell Biology, 1998).

The experiment has as its target T1, HA-tagged human TGF-β type I receptor (TβRI-HA) (human, UniProt P36897 34-503).
T1 sequence (looked up): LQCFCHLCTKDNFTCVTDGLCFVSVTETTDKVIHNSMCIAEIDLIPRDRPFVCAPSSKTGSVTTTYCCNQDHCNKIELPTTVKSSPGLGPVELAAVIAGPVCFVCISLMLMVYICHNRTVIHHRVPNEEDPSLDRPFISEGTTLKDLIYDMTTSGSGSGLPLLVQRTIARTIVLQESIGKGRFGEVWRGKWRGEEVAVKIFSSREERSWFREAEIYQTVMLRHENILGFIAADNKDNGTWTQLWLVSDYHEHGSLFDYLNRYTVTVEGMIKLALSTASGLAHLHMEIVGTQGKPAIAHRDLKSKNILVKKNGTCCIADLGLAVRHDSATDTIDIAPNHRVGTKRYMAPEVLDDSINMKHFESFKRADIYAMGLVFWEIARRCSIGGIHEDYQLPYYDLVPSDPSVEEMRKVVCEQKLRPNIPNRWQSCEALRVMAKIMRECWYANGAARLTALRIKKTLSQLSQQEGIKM
Description: antibody-mediated immunofluorescence copatching.

B1: myc-tagged human TGF-β type I receptor (TβRI-myc) (receptor, UniProt P36897 34-503, looked up)
chain: LQCFCHLCTKDNFTCVTDGLCFVSVTETTDKVIHNSMCIAEIDLIPRDRPFVCAPSSKTGSVTTTYCCNQDHCNKIELPTTVKSSPGLGPVELAAVIAGPVCFVCISLMLMVYICHNRTVIHHRVPNEEDPSLDRPFISEGTTLKDLIYDMTTSGSGSGLPLLVQRTIARTIVLQESIGKGRFGEVWRGKWRGEEVAVKIFSSREERSWFREAEIYQTVMLRHENILGFIAADNKDNGTWTQLWLVSDYHEHGSLFDYLNRYTVTVEGMIKLALSTASGLAHLHMEIVGTQGKPAIAHRDLKSKNILVKKNGTCCIADLGLAVRHDSATDTIDIAPNHRVGTKRYMAPEVLDDSINMKHFESFKRADIYAMGLVFWEIARRCSIGGIHEDYQLPYYDLVPSDPSVEEMRKVVCEQKLRPNIPNRWQSCEALRVMAKIMRECWYANGAARLTALRIKKTLSQLSQQEGIKM
As to B1, the “stoichiometry N” value turned out to be 2.

A word on the stoichiometry N: it is the number of molecules, sites or subunits per partner or assembly.
